# Measurements reported in patent US20240150460A1 (SHENGHE CHINA BIOPHARMACEUTICAL, published 2024).
# T1: human NKp30-his protein (KACTUS; Cat: NKP-HM430) (human, UniProt O14931 19-135, limits assumed)
# T1 construct: Bought protein (KACTUS NKP-HM430); not shown: His tag
# T1 sequence (looked up): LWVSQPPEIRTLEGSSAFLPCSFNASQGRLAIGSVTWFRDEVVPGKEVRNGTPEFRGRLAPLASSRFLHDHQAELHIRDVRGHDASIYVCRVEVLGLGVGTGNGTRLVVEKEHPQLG
# Assays:
# [1] = target: T1, human NKp30-his protein (KACTUS; Cat: …); assay: BLI (Octet Red96e), antibody captured on AHC sensor, 100 nM human NKp30-his in solution, 1:1 fit
# Description: After equilibration of the AHC sensor with 0.02% PBST (0.02% Tween 20, pH 7.4, 1*PBS) as buffer for 60 s, the NKp30 antibody in the sample plate was immobilized for 300 s and second equilibration was performed for 180 s. […] human NKp30-his protein (KACTUS; Cat: NKP-HM430) was bound with NKp30 antibody for 300 s and then dissociated for 600 s. After dissociation, 10 mM glycine (pH 2.0) was used as regeneration buffer to regenerate for 30 s.
# Subtract the result plot for reference channel H1 from the test result plot. The experimental data fit the 1:1 binding model. The molecular weight of 35 kDa was used to calculate the molar concentration of human NKp30 protein.
# [2] = target: T1, human NKp30-his protein (KACTUS; Cat: …); assay: ELISA, Human-NKp30-His coated at 0.2 µg/mL, antibody from 10 µg/mL in 3-fold steps, goat anti-human Fc, OD450 (Example 11)
# Description: Human-NKp30-His (purchased from KACTUS, item No. NKP-HM430) was diluted to 0.2 μg/mL with the coating solution (1×PBS, pH 7.4), and was coated into 96-well enzyme-labelled plates at 100 μL/well and allowed to stand overnight at 4° C. The coating solution was poured off, the plate was washed with 1×PBST at 300 μL/well, washed with a plate washer for 4 times, and patted dry on a plate paper. The plate was blocked with 3% skimmed milk powder at 300 μL/well, and incubated at 37° C. for 1 h. The blocking solution was poured off, washed with a plate washer for 4 times, and patted dry on a plate paper. The reference product and the test product were diluted with 3% skimmed milk powder to 10 μg/mL, and the initial concentration was diluted by 3 times. A total of 11 gradients were diluted, and another blank well was set, and only diluent was added. It was incubated at 37° C. and 100 μL/well for 1 h. Liquid in the wells was discarded, and washed with a plate washer for 4 times, and patted dry on a plate paper. The goat anti-human Fc was diluted with 3% skimmed milk powder at 1: 20,000 and 100 μL/well, and incubated at 37° C. for 1 h. The plate was washed with a plate washer for 6 times, and patted dry on a plate paper. TMB color developing solution was added at 100 μL/well, and wrapped with an aluminum foil, and the color was developed at 37° C. for 8 minutes, protected from light. The termination solution 1 M HCl was added at 100 μL/well to terminate the color development reaction. It was read at 450 nm on an enzyme-labeled instrument.
Kd [1],EC50 [2],Binder
1.46 nM,,"antibody 1 (antibody, V domains shown, expressed in CHO cells) VH: QLQLVESGGGTVQTGGSLRLACVVSGPTYSFYDMGWFRRAPGKEREFVAAVTASGDTTIYADSVKGRFTIARDNAKNTVYLQMNSLKSEDTGAYYCAAGEYSSTAATYYYWGQGTQVTVSS"
1.26 nM,,"antibody 17 (antibody, V domains shown, expressed in CHO cells) VH: QLQLVESGGGLVQPGGSLRLSCAASGSIDSINAMGWYRQAPGKLRELVAGITRGGDVNYADSVKGRFTISRVDARNTVTVYLQMNSLKPEDTAVYYCNNLGFPSDWAQGTQVTVSS"
3.06 nM,,"antibody 11 (antibody, V domains shown, expressed in CHO cells) VH: EVQLVESGGGLVQPGESLRLSCVASGGDFRFKSMGWYRQAPGKLRELVAGITTGGVTDYADSVKGRFTISRDNANKAVWLQMNRLKPDDTAVYDCNTLGAAAYDWGQGTQVTVSS"
2.31 nM,,"antibody 22 (antibody, V domains shown, expressed in CHO cells) VH: QVQLVESGGGLVQPGGSLRLSCAASGSIFSANVMGWYRQAPGKLRELVAGMHSGGSANYADSVKGRFTISKDNAKNTMYLQMNSLKPEDTAVYYCNFGLGFDGHDYWGQGTQVTVSA"
1.25 nM,,"antibody 20 (antibody, V domains shown, expressed in CHO cells) VH: EVQLVESGGGLVQPGGSLRLSCAASGSAFSIEPWGWYRQAPGQLRELVAGITSDDKTDYADSVKDRFTISRDNAKNTVFLQMNSLKPEDTAVYYCNVLGWPRDDYWGQGTQVTVSS"
0.433 nM,,"antibody 13 (antibody, V domains shown, expressed in CHO cells) VH: EVQLVESGGGLVQPGGSLRLSCAASGGIFGSTHMGWYRQAPGKLREMVAGITSTGNHRNVADSVKGRFTISKDNAKNTLYLQMNSLKPEDTAVYYCNSFPDQVFNWGQGTQVTVSS"
,0.00719 µg/mL,"antibody 10-hu4 (antibody, V domains shown) VH: EVQLVESGGGLVQPGGSLRLSCAASGITFSRSVMGWFRQAPGKLRELVAGITSDDNTDYADSVKGRFTISRDNSKNTLYLQMNSLRAEDTAVYYCNILPDSRLGWGQGTLVTVSS"
,0.0104 µg/mL,"antibody 10-hu5 (antibody, V domains shown) VH: EVQLVESGGGLVQPGGSLRLSCAVSGITFSRSVMGWFRQAPGKLRELVAGITSDDNTDYADSVKGRFTISRDNSKNTLYLQMNSLRAEDTAVYYCNILPDSRLGWGQGTLVTVSS"
,0.378 µg/mL,"antibody 10-hu1 (antibody, V domains shown) VH: EVQLVESGGGLVQPGGSLRLSCAASGITFSRSVMGWFRQAPGKLRELVSGITSDDNTDYADSVKGRFTISRDNSKNTLYLQMNSLRAEDTAVYYCARLPDSRLGWGQGTLVTVSS"
,0.0246 µg/mL,"antibody 10-hu2 (antibody, V domains shown) VH: EVQLVESGGGLVQPGGSLRLSCAASGITFSRSVMGWFRQAPGKLRELVAGITSDDNTDYADSVKGRFTISRDNSKNTLYLQMNSLRAEDTAVYYCARLPDSRLGWGQGTLVTVSS"
,0.0118 µg/mL,"antibody 10-hu3 (antibody, V domains shown) VH: EVQLVESGGGLVQPGGSLRLSCAASGITFSRSVMGWFRQAPGKLRELVAGITSDDNTDYADSVKGRFTISRDNSKNTLYLQMNSLRAEDTAVYYCAILPDSRLGWGQGTLVTVSS"
0.201 nM,0.00522 µg/mL,"antibody 10 (antibody, V domains shown, expressed in CHO cells; also called chimeric antibody 10) VH: QVQLVESGGGLVQPGGSLTLSCAVSGITFSRSVMGWFRQAPGKLRELVAGITSDDNTDYADSVKGRFTISRDNAKNTVYLQMNSLKPEDTAVYYCNILPDSRLGWGQGTQVTVSS"
0.597 nM,,"antibody 2 (antibody, V domains shown, expressed in CHO cells) VH: QVQLVESGGGLVQPGGSLRLSCAASGSIFSVNEMGWYRQAPGKLRELVAAITSDGTTAYADSVKGRFTISRDNAKNTVYLQMNSLKPEDTAVYDCNTWPEARGDWGQGTQVTVSS"
1.35 nM,,"antibody 14 (antibody, V domains shown, expressed in CHO cells) VH: QLQLVESGGGLVQPGGSLRLSCAVSASIFSVNEMGWYRQAPGKLRELVAAITSDGTTAYADSVKGRFTISRDNAKNTVYLQMNSLKPEDTAVYDCNTWPQARGDWGQGTQVTVSS"
104 nM,,"antibody 5 (antibody, V domains shown, expressed in CHO cells) VH: EVQVVESGGGLVQAGGSLTLSCAASGRPFSTFPTSMGWFRQAPGKEREFVAAISESGLNTYYRDSVKGRFGISRDNAKNTVYLQMNTLTAEDTAVYFCAAAPGYMTTDSQYYLGNKYQYWGQGTQVTVSS"
0.347 nM,,"antibody 15 (antibody, V domains shown, expressed in CHO cells) VH: EVQLVESGGGSVQTGGSLRLSCAASGPTFNFYGMAWFRQAPGKEREFVASIIPGSGDTSYASSVRGRFTISEDNARNNAYLQMNTLKPEDTAVYYCAAGTGGIYSSDYPYWGQGTQVTVSS"
2.88 nM,,"antibody 6 (antibody, V domains shown, expressed in CHO cells) VH: QVQLVESGGGLVQPGGSLRLSCAASRAIFPEYSIAWFRQAPGKEREGVALVSRIGDRVDYADSVKGRFTISRDNAKNTVYLQMNSLKPEDTAVYHCAAGQLSSSTYYGDEYVYWGQGTQVTVSS"
20.1 nM,,"antibody 21 (antibody, V domains shown, expressed in CHO cells) VH: EVQLVESGGGLVQPGGSLRLSCAASGSTYAFYNMGWFRQRPGKEREFAAAILWGRSGVYTTYADSVKGRFTISRDNAQNTVYLQMNSLKPEDTAVYYCAAGLGTMRANEYDYWGQGTQVTVSS"
2.07 nM,,"antibody 3 (antibody, V domains shown, expressed in CHO cells) VH: QLQLVESGGGLVQTGDSTKLSCTASGRSFSINDMGWYRQAPGKLRELVAGITSGGSTNYADSVKGRFTISRDNAKNTVYLQMNSLKPEDTAVYYCNVLGWPDFGSWGQGTQVTVSS"
0.997 nM,,"antibody 16 (antibody, V domains shown, expressed in CHO cells) VH: EVQLVESGGGLVQAGGSLRLSCAASGISLITYNMGWYRQAPGKLRELVAGITTGGITDYTDSVKGRFTISRDNAKNTLYLQMNSLKPEDTAVYYCDTLGMANYWGQGTQVTVSS"
5.56 nM,,"antibody 9 (antibody, V domains shown, expressed in CHO cells) VH: QVQLVESGGGSVQAGGSLRLSCAASGRTFSDYVMGWFRQAPGKEREFVGTITRIGGMPYYADFVKGRFTISRDYAKNAGYLQLNNLKPEDTALYYCALDLRLRLGVTPREYDYWGQGTQVTVSS"
9.64 nM,,"antibody 7 (antibody, V domains shown, expressed in CHO cells) VH: EVQVVESGGGLVQAGGSLRLSCAASGRTFSNYNVGWFRQAPGKEREFLATISESGGSTYYADSVKGRFTISRDNGINMVYLQMSSLKPEDTAVYYCAESRIFSFSYADGRGYAYWGQGTQVTVFS"
0.491 nM,,"antibody 12 (antibody, V domains shown, expressed in CHO cells) VH: EVQLVESGGDLVQPGGSLRLSCAAFGSSFSIDMMGWYRQVPGKQRELVAGITKGGFADYADSVKGRFTISMDAAKNTVYLQMNSLKPEDTAVYYCNTLPTHSDWGQGTQVTVSS"
1.81 nM,,"antibody 19 (antibody, V domains shown, expressed in CHO cells) VH: EVQVVESGGDLVQPGGSLRLSCAAFGSSFSIDMMGWYRQVPGKQRELVAGITKGGFADYADSVKGRFTISMDAAKNTVYLQMNSLKPEDTAVYYCNTLPTHSDWGQGTQVTVSS"
9.11 nM,,"antibody 8 (antibody, V domains shown, expressed in CHO cells) VH: QVQLVESGGGLVQTGDSLRLSCAASGRTYDNYAMGWFRQAPGKEREFVAAFSQNGGRTDYADSVKGRFAISDDRSTVHLDMNSLLPEDTAVYYCAARPPAYFSNAVYSKVDEYRYWGQGTQVTVSS"
4.97 nM,,"antibody 4 (antibody, V domains shown, expressed in CHO cells) VH: QVQLVESGGGLVQPGGSLRLSCAASGSIFKINAMGWYRQAPGKLRELVAGITSGGSTNYADSVKGRFTISRDNAKNTLYLQMNSLKPDDTAVYYCNQLGFPQYWGQGTQVTVSS"
,0.0348 µg/mL,"antibody 18-hu1 (antibody, V domains shown) VH: EVQLVESGGGLVQPGGSLRLSCAASGIRFSIANMGWYRQAPGKLHEMVSGITSDGFTNYADSVKGRFTISRDNSKNTLYLQMNSLRAEDTAVYYCAKFPTRHYWGQGTLVTVSS"
,0.0105 µg/mL,"antibody 18-hu2 (antibody, V domains shown) VH: EVQLVESGGGLVQPGGSLRLSCAASGIRFSIANMGWYRQAPGKLHEMVAGITSDGFTNYADSVKGRFTISRDNSKNTLYLQMNSLRAEDTAVYYCAKFPTRHYWGQGTLVTVSS"
